± gives the uncertainty stated by the source.
Test: self-splicing fitness, log relative to wild type (ln ratio); higher = more splicing; Tetrahymena group I intron in knt gene, E. coli kanamycin selection, DiMSum; sequences stand for … in CUCUCU…GGAGGGAAAAGUUAUCAGGCAUGCACCUGGUAGCUAGUCUUUAAACCAAUAGAUUGCAUCGGUUUAAAAGGCAAGACCGUCAAAUUGCGGGAAAGGGGUCAACAGCCGUUCAGUACCAAGUCUCAGGGGAAACUUUGAGAUGGCCUUGCAAAGGGUAUGGUAAUAAGCUGACGGACAUGGUCCUAACCACGCAGCCAAGUCCUAAGUCAACAGAUCUUCUGUUGAUAUGGAUGCAGUUCACAGACUAAAUGUCGGUCGGGGAAGAUGUAUUCUUCUCAUAAGAUAUAGUCGGACCUCUCCUUAAUGGGAGCUAGCGGAUGAAGUGAUGCAACACUGGAGCCGCUGGGAACUAAUUUGUAUGCGAAAGUAUAUUGAUUAGUUUUGGAGUACUCGUGGUCG
How it was run: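 DiMSum derived fitness as the error-weighted combination of fold changes across replicates, kanamycin versus no kanamycin, normalised to wild type. E. coli BL21(DE3) held the library, which randomised all eight P1ex-region intron nucleotides within the knt kanamycin-resistance gene on pET-22b(+). Six replicate transformations grew overnight at 37°C or 30°C on LB agar with or without 25 μg/mL kanamycin, also containing 100 μg/mL carbenicillin, 50 μM IPTG and 0.2% rhamnose, and pooled colonies were amplicon-sequenced on an Illumina HiSeq 2500.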

Sequence | self-splicing fitness (ln) (30 °C) | self-splicing fitness (ln) (37 °C)
CUCUAGCAAUAUUACGUGGC | -3.7 ± 0.22 | -2.82 ± 0.24
GUGCAGCAAUAUUACGCAGU | -3.58 ± 0.27 | -2.4 ± 0.28
GGAAAGCAAUAUUACGCUGC | -3.32 ± 0.38 | 
UAGCAGCAAUAUUACGGUGG | -1.85 ± 0.089 | -1.12 ± 0.1
AACUAGCAAUAUUACGUCCG | -1.74 ± 0.11 | -0.228 ± 0.13
UGUUAGCAAUAUUACGCGGG | -2.74 ± 0.29 | -1.57 ± 0.26
CUUCAGCAAUAUUACGUGAA | -2.71 ± 0.12 | -2.72 ± 0.2
UCCGAGCAAUAUUACGAUAC | -4.73 ± 0.46 | -2.96 ± 0.35
CAGCAGCAAUAUUACGCCAA | -3.43 ± 0.32 | -1.87 ± 0.17
ACAUAGCAAUAUUACGGCGU | -0.355 ± 0.07 | 0.246 ± 0.081
GUUCAGCAAUAUUACGAGGA | -3.54 ± 0.27 | -2.18 ± 0.26
GCGUAGCAAUAUUACGAUCC | -2.41 ± 0.13 | -0.852 ± 0.15
UCUGAGCAAUAUUACGAUUG | -2.97 ± 0.27 | -2.39 ± 0.33
GUGGAGCAAUAUUACGAAUC | -3.4 ± 0.24 | -1.43 ± 0.26
AUAAAGCAAUAUUACGUCCA | -0.469 ± 0.098 | 0.194 ± 0.16
GAGCAGCAAUAUUACGCCCA | -0.299 ± 0.18 | 0.255 ± 0.26
GUUAAGCAAUAUUACGGUUU | -0.85 ± 0.094 | -1.5 ± 0.12
UACAAGCAAUAUUACGGCAG | -0.426 ± 0.078 | -0.134 ± 0.11
AUAAAGCAAUAUUACGCCCG | -1.01 ± 0.14 | -0.313 ± 0.16
CGUUAGCAAUAUUACGCGUU | -4.08 ± 0.13 | -2.39 ± 0.12
GGUUAGCAAUAUUACGACUA | 0.135 ± 0.11 | 0.423 ± 0.14
AGGAAGCAAUAUUACGCACG | -0.986 ± 0.15 | -1.23 ± 0.18
UGGUAGCAAUAUUACGUCAU | -2.49 ± 0.23 | -2.57 ± 0.36
UCUUAGCAAUAUUACGCUAA | -2.71 ± 0.35 | 
CUACAGCAAUAUUACGUUGA | -3.13 ± 0.17 | -3.35 ± 0.21
GAGCAGCAAUAUUACGUGGG | -3.13 ± 0.24 | -3.03 ± 0.27

Sequence | self-splicing fitness (ln) (30 °C) | self-splicing fitness (ln) (37 °C)
CGUUAGCAAUAUUACGUUGU | -4.22 ± 0.29 | -2.78 ± 0.22
UAACAGCAAUAUUACGAUGU | -2.73 ± 0.13 | -2.08 ± 0.14
UCCAAGCAAUAUUACGACCA | -1.63 ± 0.16 | -0.935 ± 0.17
GUCUAGCAAUAUUACGGUCG | -1.06 ± 0.089 | -0.996 ± 0.11
UUUGAGCAAUAUUACGCAGA |  | -1.51 ± 0.32
UCCAAGCAAUAUUACGCGCA | 0.131 ± 0.064 | 0.306 ± 0.079
UUACAGCAAUAUUACGAUCU | -1.88 ± 0.063 | -1.02 ± 0.079
GCUUAGCAAUAUUACGAUUG | -3.31 ± 0.25 | -1.01 ± 0.17
GAGCAGCAAUAUUACGCUCC | -2.25 ± 0.35 | -0.34 ± 0.38
GGCUAGCAAUAUUACGAAUC | 0.199 ± 0.18 | 0.239 ± 0.19
UCAAAGCAAUAUUACGCCUG | -0.562 ± 0.066 | -0.293 ± 0.091
ACGUAGCAAUAUUACGCCCA | -0.614 ± 0.12 | -0.952 ± 0.14
AAACAGCAAUAUUACGCGCA | -0.282 ± 0.081 | -0.19 ± 0.087
GGGUAGCAAUAUUACGUUCU | -0.416 ± 0.11 | -0.164 ± 0.13
CAUCAGCAAUAUUACGUUUA | -1.36 ± 0.086 | -1.36 ± 0.094
CCCUAGCAAUAUUACGCCGC | -3.7 ± 0.25 | -1.96 ± 0.27
UUUAAGCAAUAUUACGUAAU | -2.15 ± 0.11 | -1.74 ± 0.12
AAUGAGCAAUAUUACGUACU | -0.657 ± 0.12 | -0.978 ± 0.16
AACAAGCAAUAUUACGGAGG | -3.19 ± 0.19 | -0.738 ± 0.15
UUCAAGCAAUAUUACGUUCC |  | -1.79 ± 0.34
UACAAGCAAUAUUACGAUUG | -3.18 ± 0.17 | -1.8 ± 0.17
AUAAAGCAAUAUUACGCAGG | -1.32 ± 0.098 | -0.913 ± 0.14
AUCUAGCAAUAUUACGGUCA | -1.31 ± 0.15 | -0.841 ± 0.14
UUGAAGCAAUAUUACGUGAA | -1.92 ± 0.26 | -0.781 ± 0.22
ACAAAGCAAUAUUACGGUCA | -0.595 ± 0.069 | -0.472 ± 0.07
AAGUAGCAAUAUUACGUGUU | -2.27 ± 0.093 | -1.2 ± 0.095

Sequence | self-splicing fitness (ln) (30 °C) | self-splicing fitness (ln) (37 °C)
ACUAAGCAAUAUUACGAGGU | -3 ± 0.14 | -3.37 ± 0.25
GUACAGCAAUAUUACGAUAC | -2.35 ± 0.21 | -2.52 ± 0.22
CCCCAGCAAUAUUACGUGUU | -3.79 ± 0.12 | -3.3 ± 0.17
AAUGAGCAAUAUUACGUCUU | 0.00922 ± 0.083 | -0.0903 ± 0.096
CCGAAGCAAUAUUACGUAGU | -3.44 ± 0.17 | -3.21 ± 0.23
UUGGAGCAAUAUUACGGAAA | -3.48 ± 0.47 | -1.64 ± 0.24
UUCAAGCAAUAUUACGUUUC | -3.02 ± 0.13 | -2.25 ± 0.18
UAGAAGCAAUAUUACGGGGC | -3.58 ± 0.39 | -1.6 ± 0.21
GCGAAGCAAUAUUACGGAAG | -2.62 ± 0.18 | -1.93 ± 0.16
UGGAAGCAAUAUUACGUAAC | -2.91 ± 0.33 | -1.71 ± 0.26
GGUUAGCAAUAUUACGACUG | -0.729 ± 0.1 | -0.796 ± 0.12
CCUGAGCAAUAUUACGAGGG | -3.48 ± 0.19 | -2.22 ± 0.23
UGACAGCAAUAUUACGGUGA | -0.731 ± 0.052 | 0.000318 ± 0.071
CAAGAGCAAUAUUACGUCUA | -2.41 ± 0.13 | -1.56 ± 0.11
UCCCAGCAAUAUUACGACUC | -3.89 ± 0.25 | -1.91 ± 0.24
CUCAAGCAAUAUUACGAUAC | -1.63 ± 0.18 | 
GACUAGCAAUAUUACGCCGC | -3.31 ± 0.21 | -1.65 ± 0.2
GGAAAGCAAUAUUACGGCAC | -0.927 ± 0.12 | -0.0107 ± 0.14
CGGCAGCAAUAUUACGUUGC | -3.03 ± 0.27 | -2.57 ± 0.33
GUCUAGCAAUAUUACGUCGC | -0.459 ± 0.2 | 0.215 ± 0.19
GGGUAGCAAUAUUACGGGAC | -2.79 ± 0.2 | -0.633 ± 0.13
CACGAGCAAUAUUACGUCUU | -2.89 ± 0.22 | -2.82 ± 0.24
GAGCAGCAAUAUUACGGCGU | -0.163 ± 0.14 | 0.683 ± 0.18
GUGAAGCAAUAUUACGUUCC | -1.67 ± 0.17 | -1.16 ± 0.2
GACGAGCAAUAUUACGUCCC |  | -0.0984 ± 0.5
UUCUAGCAAUAUUACGGACG | -1.14 ± 0.15 | 0.26 ± 0.15

Source: the supplement of paper PMC7877785
